{
  "source": "paper PMC8983318",
  "about": "“Deciphering the structure of Arabidopsis thaliana 5-enol-pyruvyl-shikimate-3-phosphate synthase: An essential step toward the discovery of novel inhibitors to supersede glyphosate” (Computational and Structural Biotechnology Journal, 2022)",
  "molecules": {"B1": {"name": "5-enol-pyruvyl-shikimate-3-phosphate synthase (AtEPSPS) (Arabidopsis thaliana) (protein)", "chain": "KASEIVLQPIREISGLIKLPGSKSLSNRILLLAALSEGTTVVDNLLNSDDINYMLDALKRLGLNVETDSENNRAVVEGCGGIFPASIDSKSDIELYLGNAGTAMRPLTAAVTAAGGNASYVLDGVPRMRERPIGDLVVGLKQLGADVECTLGTNCPPVRVNANGGLPGGKVKLSGSISSQYLTALLMSAPLALGDVEIEIVDKLISVPYVEMTLKLMERFGVSVEHSDSWDRFFVKGGQKYKSPGNAYVEGDASSASYFLAGAAITGETVTVEGCGTTSLQGDVKFAEVLEKMGCKVSWTENSVTVTGPPRDAFGMRHLRAIDVNMNKMPDVAMTLAVVALFADGPTTIRDVASWRVKETERMIAICTELRKLGATVEEGSDYCVITPPKKVKTAEIDTYDDHRMAMAFSLAACADVPITINDPGCTRKTFPDYFQVLERITKH", "notes": "residues 77-520 (starts from Lys77, preceded by Ser-Asn-Ala)"}},
  "key": {"[1]": {"target": "T1, 5-enol-pyruvyl-shikimate-3-phosphate synthase (AtEPSPS) (Arabidopsis thaliana, UniProt P05466)", "T1 construct": "gene At2g45300; residues 77-520 (starts from Lys77, preceded by Ser-Asn-Ala)", "T1 sequence (P05466 77-520)": "B1 chain", "experiment": "malachite green phosphate-release assay, Lineweaver-Burk analysis (Ki vs PEP about […]; Ki vs S3P about […]; IC50 about […])", "type": "biochemical"}, "purified protein": {"substrate": "C=C(OP(=O)(O)O)C(=O)O", "experiment": "purified protein", "conditions": "glyphosate is competitive with respect to PEP"}, "[2]": {"substrate": "O=C(O)C1=C[C@@H](OP(=O)(O)O)[C@@H](O)[C@H](O)C1", "experiment": "steady-state kinetics of the purified enzyme, KM(app), malachite green assay", "type": "biochemical, Arabidopsis thaliana"}},
  "data": [
    {"molecule": "O=C(O)CNCP(=O)(O)O", "note": "[glyphosate, N-[phosphonomethyl]glycine]", "values": [
      {"measurement": "Ki", "setting": "[1]", "value": "~1000", "unit": "nM"}
    ]},
    {"molecule": "B1", "values": [
      {"measurement": "Km", "setting": "purified protein", "value": 185, "unit": "µM"},
      {"measurement": "Km", "setting": "[2]", "value": 200, "unit": "µM"}
    ]}
  ]
}
